Data taken from patent publication US20200262877A1, “ION CHANNEL-BINDING PEPTIDES AND METHODS OF USE THEREOF” (priority 2017, published 2020).

How the values were obtained:
5HT3a = molecular target: T1, 5HT3a (Homo sapiens, UniProt P46098); experiment: Ion channel panel (IonWorks Barracuda): 5HT3a; format: cell-based
T1 construct: host or cells: HEK293 or CHO
T1 sequence (P46098 whole entry, looked up): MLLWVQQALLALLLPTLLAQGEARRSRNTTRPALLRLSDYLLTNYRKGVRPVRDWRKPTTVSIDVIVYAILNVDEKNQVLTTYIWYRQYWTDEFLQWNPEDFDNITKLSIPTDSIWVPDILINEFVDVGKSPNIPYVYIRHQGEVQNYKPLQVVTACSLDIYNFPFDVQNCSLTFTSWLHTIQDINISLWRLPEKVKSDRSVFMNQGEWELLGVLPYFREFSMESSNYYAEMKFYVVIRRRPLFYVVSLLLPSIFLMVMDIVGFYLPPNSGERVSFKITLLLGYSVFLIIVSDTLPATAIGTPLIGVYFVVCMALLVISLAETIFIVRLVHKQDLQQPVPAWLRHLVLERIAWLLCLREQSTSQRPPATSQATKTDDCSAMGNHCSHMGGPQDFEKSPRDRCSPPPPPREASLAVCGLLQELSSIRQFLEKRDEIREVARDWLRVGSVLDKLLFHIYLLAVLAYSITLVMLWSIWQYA
Method: (§1) This example describes a method for assaying ion channel activity in cells.
(§2) Peptides were screened in duplicate at final concentrations of 20 μM and 200 nM, as determined by amino acid analysis, and diluted into HEPES buffered physiological saline (HBPS). HEK293 or CHO cells from the American Type Culture Collection (ATCC) were transfected with the appropriate ion channel before use. HEK293 cells were grown in Dulbecco's Modified Eagle Medium/Nutrient Mixture F-12, and CHO cells were cultured in Ham's F-12 media. All cultures were supplemented with 10% fetal bovine serum, 100 U/ml penicillin G, 100 μg/ml streptomycin sulfate, and the appropriate selection antibiotics. Prior to use, cells were washed twice with Hank's Balanced Salt Solution, and treated with Accutase cell detachment solution (Sigma-Aldrich). Cells were then washed. Peptides and controls were incubated with cells for at least five minutes.
(§3) Percent inhibition was defined as: (1-(Ipeptide/Icontrol))×100%).
(§4) Percent values were calculated using the following formula: % activation=(IPeptide/Icontrol)×100%, where IPeptide is the current produced by co-application a peptide with agonist, and Icontrol refers to the current produced by stimulation in control. Control used for each ion channel is the reference compound matched to a particular channel, as illustrated in TABLE 10 below.

α3β4 = molecular target: T2, α3β4 (Homo sapiens, UniProt P30926+P32297); experiment: Ion channel panel (IonWorks Barracuda): α3β4; format: cell-based; details: 100% = no change, <100% = inhibition
T2 construct: host or cells: HEK293 or CHO
Method: as §1, §2, §3, §4

α4β2 = molecular target: T3, α4β2 (Homo sapiens, UniProt P17787+P43681); experiment: Ion channel panel (IonWorks Barracuda): α4β2; format: cell-based; details: 100% = no change, <100% = inhibition
T3 construct: host or cells: HEK293 or CHO
T3 sequence (P43681 29-627): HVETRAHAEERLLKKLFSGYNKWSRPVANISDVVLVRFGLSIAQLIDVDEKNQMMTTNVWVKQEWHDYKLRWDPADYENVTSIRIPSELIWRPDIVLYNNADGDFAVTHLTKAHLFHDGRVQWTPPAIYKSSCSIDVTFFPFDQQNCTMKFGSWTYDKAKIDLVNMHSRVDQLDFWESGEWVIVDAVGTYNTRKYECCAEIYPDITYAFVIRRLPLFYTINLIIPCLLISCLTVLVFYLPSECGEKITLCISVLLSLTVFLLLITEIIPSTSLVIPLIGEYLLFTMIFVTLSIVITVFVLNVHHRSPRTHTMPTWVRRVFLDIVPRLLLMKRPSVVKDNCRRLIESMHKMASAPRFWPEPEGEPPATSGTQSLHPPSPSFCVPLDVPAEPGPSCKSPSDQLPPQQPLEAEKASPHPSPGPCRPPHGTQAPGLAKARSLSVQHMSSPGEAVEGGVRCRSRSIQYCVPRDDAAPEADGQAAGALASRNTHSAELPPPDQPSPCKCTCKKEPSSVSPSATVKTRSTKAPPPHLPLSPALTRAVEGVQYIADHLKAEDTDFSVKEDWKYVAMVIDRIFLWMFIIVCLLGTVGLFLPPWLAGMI
T3 sequence (P17787 26-502): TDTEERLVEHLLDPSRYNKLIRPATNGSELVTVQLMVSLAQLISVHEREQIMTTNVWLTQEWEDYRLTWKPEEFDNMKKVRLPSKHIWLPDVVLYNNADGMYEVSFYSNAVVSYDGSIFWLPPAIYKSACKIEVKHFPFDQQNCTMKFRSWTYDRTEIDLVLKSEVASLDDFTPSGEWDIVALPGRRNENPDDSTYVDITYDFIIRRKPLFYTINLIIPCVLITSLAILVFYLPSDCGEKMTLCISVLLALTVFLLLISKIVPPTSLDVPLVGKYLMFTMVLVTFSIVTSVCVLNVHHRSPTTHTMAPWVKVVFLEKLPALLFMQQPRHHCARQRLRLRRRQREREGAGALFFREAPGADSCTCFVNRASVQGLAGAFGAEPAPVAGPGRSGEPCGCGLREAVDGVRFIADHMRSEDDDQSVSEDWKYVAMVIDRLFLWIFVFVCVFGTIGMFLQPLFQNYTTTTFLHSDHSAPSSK
Method: as §1, §2, §3, §4

Cav2.1 = molecular target: T4, Cav2.1 (Homo sapiens, UniProt O00555); experiment: cell-based; details: 100% = no change, <100% = inhibition
T4 construct: host or cells: HEK293 or CHO
Method: as §1, §2, §3, §4

Cav2.2 = molecular target: T5, Cav2.2 (Homo sapiens, UniProt Q00975); experiment: cell-based; details: 100% = no change, <100% = inhibition
T5 construct: host or cells: HEK293 or CHO
Method: as §1, §2, §3, §4

Kv2.1 = molecular target: T6, Kv2.1 (Homo sapiens, UniProt Q14721); experiment: cell-based; details: 100% = no change, <100% = inhibition
T6 construct: host or cells: HEK293 or CHO
Method: as §1, §2, §3, §4

GABA = experiment: Ion channel panel (IonWorks Barracuda): GABA; format: cell-based; details: 100% = no change, <100% = inhibition
Method: as §1, §2, §3, §4

Nav1.5 = Nav1.5 (Homo sapiens, UniProt Q14524); experiment: in vitro; details: 100% = no change; for Activity of Nav1.5 with peptide, expressed as a percentage of the reference compound: peptide at 0.2 μM; for Activity of Nav1.5 with peptide (percentage of the reference compound): peptide at 20 μM
Nav1.5, sequence (Q14524 whole entry): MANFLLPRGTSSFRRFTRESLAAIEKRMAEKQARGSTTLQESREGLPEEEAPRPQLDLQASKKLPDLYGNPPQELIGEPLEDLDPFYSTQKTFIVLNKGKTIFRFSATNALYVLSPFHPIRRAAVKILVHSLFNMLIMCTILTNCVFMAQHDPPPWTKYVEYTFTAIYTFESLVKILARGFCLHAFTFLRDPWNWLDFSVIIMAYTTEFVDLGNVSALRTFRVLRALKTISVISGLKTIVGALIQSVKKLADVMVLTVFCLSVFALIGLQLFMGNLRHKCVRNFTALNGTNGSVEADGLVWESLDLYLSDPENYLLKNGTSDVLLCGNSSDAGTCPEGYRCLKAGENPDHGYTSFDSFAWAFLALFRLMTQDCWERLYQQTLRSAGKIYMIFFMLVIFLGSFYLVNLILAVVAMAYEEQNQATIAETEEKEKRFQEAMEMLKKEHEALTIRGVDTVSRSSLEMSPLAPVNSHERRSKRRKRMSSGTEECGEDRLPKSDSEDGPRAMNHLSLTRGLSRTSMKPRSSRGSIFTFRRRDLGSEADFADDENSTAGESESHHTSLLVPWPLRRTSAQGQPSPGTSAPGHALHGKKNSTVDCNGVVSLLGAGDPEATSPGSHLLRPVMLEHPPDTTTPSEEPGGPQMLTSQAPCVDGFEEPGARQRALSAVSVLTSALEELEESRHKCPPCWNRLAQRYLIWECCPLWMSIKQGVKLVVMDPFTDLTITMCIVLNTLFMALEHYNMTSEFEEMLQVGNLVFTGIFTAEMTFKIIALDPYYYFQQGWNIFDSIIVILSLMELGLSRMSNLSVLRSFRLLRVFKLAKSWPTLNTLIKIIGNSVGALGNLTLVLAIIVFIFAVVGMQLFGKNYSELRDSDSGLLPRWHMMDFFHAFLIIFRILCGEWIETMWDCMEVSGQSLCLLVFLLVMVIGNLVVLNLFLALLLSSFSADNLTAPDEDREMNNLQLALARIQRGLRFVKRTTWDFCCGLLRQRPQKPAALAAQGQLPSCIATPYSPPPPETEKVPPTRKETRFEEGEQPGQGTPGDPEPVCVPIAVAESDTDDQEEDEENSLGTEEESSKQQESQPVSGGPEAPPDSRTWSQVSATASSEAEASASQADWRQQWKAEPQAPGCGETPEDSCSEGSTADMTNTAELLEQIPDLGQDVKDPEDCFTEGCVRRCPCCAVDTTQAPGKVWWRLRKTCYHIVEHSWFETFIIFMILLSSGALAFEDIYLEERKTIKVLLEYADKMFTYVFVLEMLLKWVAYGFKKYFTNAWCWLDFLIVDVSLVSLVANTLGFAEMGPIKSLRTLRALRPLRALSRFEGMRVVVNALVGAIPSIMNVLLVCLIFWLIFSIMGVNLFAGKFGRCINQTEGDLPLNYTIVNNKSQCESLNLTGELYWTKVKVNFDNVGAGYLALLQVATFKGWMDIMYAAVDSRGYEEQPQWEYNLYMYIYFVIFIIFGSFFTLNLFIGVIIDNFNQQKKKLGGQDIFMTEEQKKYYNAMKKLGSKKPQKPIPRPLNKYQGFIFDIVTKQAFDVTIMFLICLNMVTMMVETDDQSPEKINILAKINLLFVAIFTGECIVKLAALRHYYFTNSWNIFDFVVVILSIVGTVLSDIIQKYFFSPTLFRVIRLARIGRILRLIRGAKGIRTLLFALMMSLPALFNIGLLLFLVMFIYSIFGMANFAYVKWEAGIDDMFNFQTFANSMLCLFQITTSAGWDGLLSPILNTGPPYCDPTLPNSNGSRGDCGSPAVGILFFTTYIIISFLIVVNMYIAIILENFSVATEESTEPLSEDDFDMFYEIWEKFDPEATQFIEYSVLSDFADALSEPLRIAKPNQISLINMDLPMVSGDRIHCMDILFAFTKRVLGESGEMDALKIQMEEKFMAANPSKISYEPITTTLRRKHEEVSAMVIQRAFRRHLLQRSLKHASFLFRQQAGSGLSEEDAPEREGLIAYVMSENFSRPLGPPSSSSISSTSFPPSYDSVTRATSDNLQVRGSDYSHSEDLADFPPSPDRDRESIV
Method: as §1, §2, §3, §4

hERG = hERG (Homo sapiens, UniProt Q12809); experiment: in vitro; details: 100% = no change, <100% = inhibition
Method: as §1, §2, §3, §4

Kir2.1 = molecular target: T7, Kir2.1 (Homo sapiens, UniProt P63252); experiment: Ion channel panel (IonWorks Barracuda): Kir2.1; format: cell-based; details: 100% = no change, <100% = inhibition
T7 construct: host or cells: HEK293 or CHO
Method: as §1, §2, §3, §4

Kv1.1 = molecular target: T8, Kv1.1 (Homo sapiens, UniProt Q09470); experiment: cell-based; format: cell-based; details: 100% = no change, <100% = inhibition
T8 construct: host or cells: HEK293 or CHO
Method: as §1, §2, §3, §4

Kv1.2 = molecular target: T9, Kv1.2 (Homo sapiens, UniProt P16389); experiment: cell-based; format: cell-based; details: 100% = no change, <100% = inhibition
T9 construct: host or cells: HEK293 or CHO
Method: as §1, §2, §3, §4

Kv1.3 = molecular target: T10, Kv1.3 (Homo sapiens, UniProt P22001); experiment: cell-based; format: cell-based; details: 100% = no change, <100% = inhibition
T10 construct: host or cells: HEK293 or CHO
Method: as §1, §2, §3, §4

Nav1.7 = molecular target: T11, Nav1.7 (Homo sapiens, UniProt Q15858); experiment: cell-based; format: cell-based; details: 100% = no change; for Activity of Nav1.7 with peptide, expressed as a percentage of the reference compound: peptide at 0.2 μM; for Activity of Nav1.7 with peptide (percentage of the reference compound): peptide at 20 μM
T11 construct: host or cells: HEK293 or CHO
T11 sequence (Q15858 whole entry): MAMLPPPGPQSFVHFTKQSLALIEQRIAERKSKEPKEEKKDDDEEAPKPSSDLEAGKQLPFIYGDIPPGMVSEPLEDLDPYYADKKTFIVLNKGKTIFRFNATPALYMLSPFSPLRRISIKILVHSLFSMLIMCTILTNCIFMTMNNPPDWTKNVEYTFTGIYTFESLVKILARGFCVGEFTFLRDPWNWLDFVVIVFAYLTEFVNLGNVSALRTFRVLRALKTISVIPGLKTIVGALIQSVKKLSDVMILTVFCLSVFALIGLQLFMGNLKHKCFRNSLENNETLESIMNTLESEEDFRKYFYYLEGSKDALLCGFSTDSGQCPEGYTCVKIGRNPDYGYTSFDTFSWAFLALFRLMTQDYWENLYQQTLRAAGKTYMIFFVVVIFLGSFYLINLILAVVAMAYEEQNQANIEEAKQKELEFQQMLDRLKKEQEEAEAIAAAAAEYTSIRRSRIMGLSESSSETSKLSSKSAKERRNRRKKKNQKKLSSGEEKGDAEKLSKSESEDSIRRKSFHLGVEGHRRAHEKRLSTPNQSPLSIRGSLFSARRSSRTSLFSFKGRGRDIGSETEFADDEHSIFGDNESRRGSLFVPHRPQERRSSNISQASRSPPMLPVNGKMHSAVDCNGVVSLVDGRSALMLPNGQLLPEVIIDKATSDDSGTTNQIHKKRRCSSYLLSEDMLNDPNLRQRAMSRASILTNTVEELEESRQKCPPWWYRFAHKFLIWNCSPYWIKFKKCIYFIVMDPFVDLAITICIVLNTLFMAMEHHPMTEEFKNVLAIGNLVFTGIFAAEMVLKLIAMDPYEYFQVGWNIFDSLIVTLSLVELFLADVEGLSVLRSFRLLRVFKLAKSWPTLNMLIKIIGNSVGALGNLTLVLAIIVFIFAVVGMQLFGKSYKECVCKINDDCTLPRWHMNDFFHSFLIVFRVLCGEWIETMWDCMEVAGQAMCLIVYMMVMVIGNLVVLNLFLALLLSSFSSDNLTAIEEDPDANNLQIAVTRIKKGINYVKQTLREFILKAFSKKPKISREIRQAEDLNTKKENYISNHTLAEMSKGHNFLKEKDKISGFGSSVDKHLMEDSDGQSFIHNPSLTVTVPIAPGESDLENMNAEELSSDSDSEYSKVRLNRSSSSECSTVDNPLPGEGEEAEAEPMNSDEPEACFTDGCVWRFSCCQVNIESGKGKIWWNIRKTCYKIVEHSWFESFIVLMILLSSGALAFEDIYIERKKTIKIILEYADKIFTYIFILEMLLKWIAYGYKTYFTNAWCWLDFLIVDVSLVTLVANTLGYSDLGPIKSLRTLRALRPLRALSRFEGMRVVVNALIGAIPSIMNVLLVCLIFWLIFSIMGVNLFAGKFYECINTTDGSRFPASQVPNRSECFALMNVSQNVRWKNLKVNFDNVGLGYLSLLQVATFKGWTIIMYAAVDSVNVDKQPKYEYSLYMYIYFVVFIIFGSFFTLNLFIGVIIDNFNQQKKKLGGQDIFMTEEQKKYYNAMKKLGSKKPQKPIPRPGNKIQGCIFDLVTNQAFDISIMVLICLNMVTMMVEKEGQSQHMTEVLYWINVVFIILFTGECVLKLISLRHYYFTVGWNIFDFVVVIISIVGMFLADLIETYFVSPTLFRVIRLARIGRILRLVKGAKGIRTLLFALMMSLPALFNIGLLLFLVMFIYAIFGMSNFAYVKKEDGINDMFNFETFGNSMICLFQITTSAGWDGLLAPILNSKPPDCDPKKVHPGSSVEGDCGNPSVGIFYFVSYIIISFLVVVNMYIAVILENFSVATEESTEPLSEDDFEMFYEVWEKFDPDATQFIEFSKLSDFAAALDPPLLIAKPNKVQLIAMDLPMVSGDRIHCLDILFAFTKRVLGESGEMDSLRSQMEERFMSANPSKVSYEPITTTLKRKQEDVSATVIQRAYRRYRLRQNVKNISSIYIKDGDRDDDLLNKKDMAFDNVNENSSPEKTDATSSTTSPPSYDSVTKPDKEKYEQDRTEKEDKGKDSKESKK
Method: as §1
as §2, with “Peptides were screened in duplicate at final concentrations of 20 μM and 200 nM, as determined by amino acid analysis, and diluted into HEPES buffered physiological saline (HBPS).” left out
as §3, §4

NR2A = molecular target: T12, NR2A (Homo sapiens, UniProt Q12879); experiment: Ion channel panel (IonWorks Barracuda): NR2A; format: cell-based; details: 100% = no change, <100% = inhibition
T12 construct: host or cells: HEK293 or CHO
Method: as §1, §2, §3, §4

NR2B = molecular target: T13, NR2B (Homo sapiens, UniProt Q13224); experiment: Ion channel panel (IonWorks Barracuda): NR2B; format: cell-based; details: 100% = no change, <100% = inhibition
T13 construct: host or cells: HEK293 or CHO
Method: as §1, §2, §3, §4

TRPA1 = molecular target: T14, TRPA1 (Homo sapiens, UniProt O75762); experiment: Ion channel panel (IonWorks Barracuda): TRPA1; format: cell-based; details: 100% = no change, <100% = inhibition
T14 construct: host or cells: HEK293 or CHO
Method: as §1, §2, §3, §4

TRPV1 = molecular target: T15, TRPV1 (Homo sapiens, UniProt Q8NER1); experiment: Ion channel panel (IonWorks Barracuda): TRPV1; format: cell-based; details: 100% = no change, <100% = inhibition
T15 construct: host or cells: HEK293 or CHO
Method: as §1, §2, §3, §4

[1] = first of two Nav1.5 columns (probably TP1)
[2] = second of two Nav1.5 columns (probably TP2)
[3] = first of two Nav1.7 columns (probably TP1)
[4] = second of two Nav1.7 columns (probably TP2)

5 (GSGVPINVKCRGSRDCLDPCKKAGMRFGKCINSKCHCTP) [compound 5]
Activity of 5HT3a with peptide (percentage of the reference compound) (5HT3a): 80%
Activity of 5HT3a with peptide, expressed as a percentage of the reference compound (5HT3a): 94%
Activity of a3b4 with peptide, expressed as a percentage of the reference compound (α3β4; peptide at 0.2 μM): 104%
Activity of a3b4 with peptide (percentage of the reference compound) (α3β4; peptide at 20 μM): 90%
Activity of a4b2 with peptide, expressed as a percentage of the reference compound (α4β2; peptide at 0.2 μM): 83%
Activity of a4b2 with peptide (percentage of the reference compound) (α4β2; peptide at 20 μM): 93%
Activity of Cav2.1 with peptide, expressed as a percentage of the reference compound (Cav2.1; peptide at 0.2 μM): 100%
Activity of Cav2.1 with peptide (percentage of the reference compound) (Cav2.1; peptide at 20 μM): 121%
Activity of Cav2.2 with peptide, expressed as a percentage of the reference compound (Cav2.2; peptide at 0.2 μM): 94%
Activity of Cav2.2 with peptide (percentage of the reference compound) (Cav2.2; peptide at 20 μM): 117%
Activity of Kv2.1 with peptide, expressed as a percentage of the reference compound (Kv2.1; peptide at 0.2 μM): 110%
Activity of Kv2.1 with peptide (percentage of the reference compound) (Kv2.1; peptide at 20 μM): 109%
Activity of GABA with peptide, expressed as a percentage of the reference compound (GABA; peptide at 0.2 μM): 109%
Activity of GABA with peptide (percentage of the reference compound) (GABA; peptide at 20 μM): 114%
Activity of Nav1.5 with peptide, expressed as a percentage of the reference compound (Nav1.5; [1]): 107%
Activity of Nav1.5 with peptide, expressed as a percentage of the reference compound (Nav1.5; [2]): 107%
Activity of Nav1.5 with peptide (percentage of the reference compound) (Nav1.5; [1]): 103%
Activity of Nav1.5 with peptide (percentage of the reference compound) (Nav1.5; [2]): 105%
Activity of hERG with peptide, expressed as a percentage of the reference compound (hERG; peptide at 0.2 μM): 106%
Activity of hERG with peptide (percentage of the reference compound) (hERG; peptide at 20 μM): 67%
Activity of Kir2.1 with peptide, expressed as a percentage of the reference compound (Kir2.1; peptide at 0.2 μM): 103%
Activity of Kir2.1 with peptide (percentage of the reference compound) (Kir2.1; peptide at 20 μM): 86%
Activity of Kv1.1 with peptide, expressed as a percentage of the reference compound (Kv1.1; peptide at 0.2 μM): 86%
Activity of Kv1.1 with peptide (percentage of the reference compound) (Kv1.1; peptide at 20 μM): 55%
Activity of Kv1.2 with peptide, expressed as a percentage of the reference compound (Kv1.2; peptide at 0.2 μM): 89%
Activity of Kv1.2 with peptide (percentage of the reference compound) (Kv1.2; peptide at 20 μM): 73%
Activity of Kv1.3 with peptide, expressed as a percentage of the reference compound (Kv1.3; peptide at 0.2 μM): 98%
Activity of Kv1.3 with peptide (percentage of the reference compound) (Kv1.3; peptide at 20 μM): 28%
Activity of Nav1.7 with peptide, expressed as a percentage of the reference compound (Nav1.7; [3]): 98%
Activity of Nav1.7 with peptide, expressed as a percentage of the reference compound (Nav1.7; [4]): 109%
Activity of Nav1.7 with peptide (percentage of the reference compound) (Nav1.7; [3]): 79%
Activity of Nav1.7 with peptide (percentage of the reference compound) (Nav1.7; [4]): 66%
Activity of NR2A with peptide, expressed as a percentage of the reference compound (NR2A; peptide at 0.2 μM): 109%
Activity of NR2A with peptide (percentage of the reference compound) (NR2A; peptide at 20 μM): 86%
Activity of NR2B with peptide, expressed as a percentage of the reference compound (NR2B; peptide at 0.2 μM): 112%
Activity of NR2B with peptide (percentage of the reference compound) (NR2B; peptide at 20 μM): 95%
Activity of TRPA1 with peptide, expressed as a percentage of the reference compound (TRPA1; peptide at 0.2 μM): 119%
Activity of TRPA1 with peptide (percentage of the reference compound) (TRPA1; peptide at 20 μM): 75%
Activity of TRPV1 with peptide, expressed as a percentage of the reference compound (TRPV1; peptide at 0.2 μM): 101%
Activity of TRPV1 with peptide (percentage of the reference compound) (TRPV1; peptide at 20 μM): 101%
